Article PMC12439145, “Aptamer-based drug delivery for targeted therapy of imatinib-resistant gastrointestinal stromal tumor”

Experiments:
[1] = target: T1, KIT (recombinant, YEASEN 93764ES80) (UniProt P10721 26-524); assay: SPR; KIT immobilized on CM5 chip; SPR at 25 C, His-KIT on CM5 chip, 50 mM NaOH regeneration; flow cytometry with 250 nM Cy5-aptamer in binding buffer with 1 mg/ml BSA and 1 mM yeast tRNA; salt and pH not given in material; settings: protein: commercial; tags: His-tag; label: Cy5 in flow cytometry; predicted stem-loop
[2] = target: T1, KIT (recombinant, YEASEN 93764ES80); assay: flow cytometry; KIT coated on aldehyde/sulfate latex beads; SPR at 25 C, His-KIT on CM5 chip, 50 mM NaOH regeneration; flow cytometry with 250 nM Cy5-aptamer in binding buffer with 1 mg/ml BSA and 1 mM yeast tRNA; salt and pH not given in material; settings: protein: commercial; tags: His-tag; label: Cy5 in flow cytometry; predicted stem-loop

T1 sequence (P10721 26-524): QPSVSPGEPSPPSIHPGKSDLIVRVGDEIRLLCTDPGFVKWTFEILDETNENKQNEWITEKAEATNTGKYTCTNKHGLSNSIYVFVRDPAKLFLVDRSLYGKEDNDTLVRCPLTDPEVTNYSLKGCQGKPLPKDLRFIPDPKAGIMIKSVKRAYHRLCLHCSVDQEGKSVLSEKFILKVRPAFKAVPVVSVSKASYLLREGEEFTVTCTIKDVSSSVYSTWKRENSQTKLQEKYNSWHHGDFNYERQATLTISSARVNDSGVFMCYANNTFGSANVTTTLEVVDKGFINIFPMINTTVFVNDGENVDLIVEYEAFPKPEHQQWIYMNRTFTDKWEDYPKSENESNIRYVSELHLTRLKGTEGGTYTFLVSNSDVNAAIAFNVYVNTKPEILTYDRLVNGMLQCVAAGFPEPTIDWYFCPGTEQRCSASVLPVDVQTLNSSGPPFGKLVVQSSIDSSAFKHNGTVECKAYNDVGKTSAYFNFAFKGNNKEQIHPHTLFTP

Binder	Kd [1] [nM]	Kd [2] [nM]
ATTCAAGGGGCCGGGGCAAGGGGGGGGTACCGTGGTAGGACATAGT (ssDNA) [KIT-d]	71.1	80.2
KIT-w (ssDNA) DNA: GAGGCATACCAGCTTATTCAAGGGGCCGGGGCAAGGGGGGGGTACCGTGGTAGGACATAGTAAGTGCAATCTGCGAA	84	106
